# Assay: soluble on expression in E. coli; label from the status in PepcDB or PDB records
row,Sequence,soluble on expression in E. coli
1,MGSDKIHHHHHHSKATGRGSGGMIGGLVASKVDPDIMSNLINNRPTVLVTGTNGKSTTTRMLAAAMRSTYTVATNEGGDNMDAGIISALLAGRNASHVVLEVDELHVPAAIERLKPDALVLLNLSRDQLDRVGEINKIERVLRDAVRSRPEMTVIANCDDVLVTSVAFDAENVIWVGAGTGWQGESATCPRTESRILHDGRHWSAEKTLLDGRTFARPTPSWEVDGDTIHSPSGDLTLDLNLPGQANRGNAAQAIAASTVFNVPVSSALPAVNSVNNVAGRYSTITVGEHKVHLLLAKNPAGWQEALSMVDRTADGLVIVVNGQVADGEDLSWLWDVRFEDFENLSVKASGERGTDLAVRLTYAEIDHELISNPVDAIAACPPGRIEVLANYTAFRDLKKALEKGTEQ,not soluble
2,MGSDKIHHHHHHSLSGRAQTEKPSALVKVGDYRASTDFLNLSAYYQTIRPVTVKVAYVSTYKTQHTIMQKLTLPAGLTVAGNLTTTKHGSYLVPSLQLYLARLSYPALQNSAKANYTLDPGTSAYSPQATISDTTKLRAFKRVAAPDYMPGYSHGDLYIGGAKAALSPVEPTTKSIRITPDGYVEVLKYDTKANAGLGFYQKPVSLAKIVKTRFHDPNRTLYLNHPLASVKTKAITQNGQTRYRLTLKNLHTPQHIAGDPETGTAGTFDSLYSIGGTTYYTFIGYDGVSN,not soluble
3,MGSDKIHHHHHHVAISIAGGVRPGKVIEIERRLYKQLIVGKHKANAMPDELSAELEESANKLDIERKALKMRLEKQAKEKSVYVEVSALLTHTVNNAIEHQLAHPQMILEASAISENQILLLDLLLHPDLNINRLRPIIESINWLSRDLINLINSPASRHRRPKHGDVQVTDIKLVLNYIGIEHLRLLIPYFCLRNWLPSGNANLLWITRKLWRYSMVSAIAAQTLAELHNEEPGLAYSCALMYQFSTSIILSQSGRIFDNTWGTWLREASHSREKQVYDAIMATDFPAEEVLGQVLLHSHRLNWQLLSLLKFDDSPITQVLKELDHDYHFTELSADAAIVAKASCYAKVLLLEEQQQIDPQEKRIMFDYYQFSAQELIRLKGQNFRKLDLL,not soluble
4,MGSDKIHHHHHHVDGSTMIARNDDTFLPLTPQRFYVHPAEKNQPKRTWVSNQNGFTAPIPSDGYRYLATPNVEVDKEGVYAESGFNEKNVAMSATESVYGNPAALAIDPLVQNGLAEDSLQTMVLPYINSARDGVRYLGQLIKQYGSPEGNGVLFSDHDEVWYMEIVTGHHWVAQRIPDDAYAITANQVAIQQVSFDDPDNFMFSDGIQDFVTENHLNPDQAGWNFRHIFGTDTEKDRHYNTPRVWFGQRYLNPEIEQDPQSSDLPFICRTSHKISVEDVEYILSSHYNETKYDPFGQGAEADRLKFRPISMNRTQNSHVLQLRNDVPADRSAIFWLCFGVPAFSPYVPFFANVTDTDPTYSDTPVRLDDQSAYWMYRKLSMIVESHYSHFIEQDTDYLTATKQQLRTHVAKTLADAAALTGDELTAYLTAQNHQIVAAMRQSTTQFTNELIEKGLTLSKLTFNMDKNL,not soluble
5,MGSDKIHHHHHHVDLMLKSVISYFLPNYCLVCEREIDPNDYLCKDCLTSIRGPIMAPVELLNIDSAHSYWKYESPMKELIRAYKFGDRPGVARLFAKIVFEMIDVFAPSTDVIVPVPTSLQAFIRRGFDTNLRILRHLARTIDIKIDNVLSISGKTVPQSTLKMQDRIDNVRDKFFLRKKPRSTSVILFDDVVTSGATASQCARVLREGGVKEITLLAIASAKK,not soluble
6,MGSDKIHHHHHHVEQTQTRVYQYKFVNSISNIDSLIWNIFFGSSHPFTRHEYLSALEMSRCVSTETGWTPMHLIVMDGDNIIALMPLYLKSHSWGEYVFDWAWAEAYERHNIGYYPKLVGSIPFTPTTGRRIGIDPRLPKHDQQPLIDGIQTYLSQTVIKQGWSSWHCLFTNTEQHLQFAQAGVMERVGCQFHWHNQNYADFNDFLSTLTSRKRKNITKERISARQQLQFRFIDGDKASAQQWQNFVRCYQNTYLKRSGHKGYLSAAFFEQIAATMGSMIRLLLIENSDAQLVASALYFVSDTHLYGRYWGALTECDYVHFEACYYQGIEYAIANQLLVFDAGAQGEHKVARGFRPVKTTSSHFVAHEGFNDAIGAFCQQEQAHIDIYIQQMCEQLPYKSIDNT,not soluble
7,MGSDKIHHHHHHVINLKELKILHTSDWHLGVTSWTSSRPVDRREELKKALDKVVEEAEKREVDLILLTGDLLHSRNNPSVVALHDLLDYLKRMMRTAPVVVLPGNHDWKGLKLFGNFVTSISSDITFVMSFEPVDVEAKRGQKVRILPFPYPDESEALRKNEGDFRFFLESRLNKLYEEALKKEDFAIFMGHFTVEGLAGYAGIEQGREIIINRALIPSVVDYAALGHIHSFREIQKQPLTIYPGSLIRIDFGEEADEKGAVFVELKRGEPPRYERIDASPLPLKTLYYKKIDTSALKSIRDFCRNFPGYVRVVYEEDSGILPDLMGEIDNLVKIE,soluble
8,MGSDKIHHHHHHVKLAAVDIGSNAIRFQVSKILEYNGMIMFKKMEYVRFPLRLGEDVFRLGMISAEKEMKFIKLIQTFKNLFELYEVDDYMISATSAMRESKNGRDIVLKVKGLVGVDIDIIDGDKEAELINTVLHNELDDNSYIHIDVGGGSTELNLFVNRKKIAARSFKIGSVRRLQGLDAPEEWESMKQWVKDNIDKLPKPVTAIGTGGNIGKIFELGTTEKSKKDKRMISLKKIEEVQHNISQYSYEDRINVLMLNSDRADVIIPASEIYTSVMEFAKAKNMLVPEVGLKDGLMLMLYERNKHLHITDLDSIRNVNKYQK,not soluble
9,MGSDKIHHHHHHVLLEEFENTSAVIEPTDMAIRGGGEVCETMIFSFNGEIVDRVRQLPESREGGYLESINGRHPWYILERDGVRVAVMLAVIGAPMAVGHLEELKACGFENFIVLGSCGVLDKSLVADKIILPSSALRDEGTSYHYAPASDEISYDPALLLTMEKALDQAGIEHVRAKTWTTDAFYRETSAKVKRRLAAGAMVVDMEASAIMAWANFRQAKVYQFFYTADYVDYHKNEWDARREERTADSMTFFEVAMAIARKLESTSC,not soluble
10,MGSDKIHHHHHHVMTKAADGMSDWDNMAIICDVLGRAPDVEMGSIGEGWSLCRWRQFVGAYTLPALPQPIFTVHIAGKPQVKTWDKGGWTETSSIPGCATIVPAGMPTGWLVDGELDVVTLSMASDVLAGQPHADQFNRMRFAFSDPLGVALTRQILSEIYAPQAEERTAYVSAMVGALKAHILSGPPAHGNPVDIPVSDFSAYRLHKIMNAILADPAAEHSLEAMAAVAGVTPSHFCRLFKKAIGITPHQYVMKARLDRAQQMLVQTEMSLAALSEAAGFASQSHFSRAFRSWFGMAPSDFRQQERRRTD,not soluble
11,MGSDKIHHHHHHVPGLLPDVDREGLLEYSVVYTDRSLNHMSQLFQGVMRDISNSLKKVYNAKSAVVVPGSGTFGMEAVARQFATNRKCLVIRNGWFSYRWTQIFDMGGIPSESIVLKARPVEEGRQAAYAPPPIEEVVAAIRENKPDLVFAPHVETASGIMLPDAYLRAVADAVHAVDGMFVLDCIASGTVWVDMKASGVDVLISAPQKGWSASPCCGLVMLGELARERIEGTTSTSFACDLRKWLQIMEAYENGGFAYHATMPTDGLATLRDVMKETEAYGFDKVRAEQVELGRRVRSVLADRGFRSVAAEGFEAPGVVVSYTDDDGIRSGKKFADAGLQIAAGVPLQCDEPQDFKTFRIGLFGLDKLHDVEGAVGRFVKGLGSIL,not soluble
12,MGSDKIHHHHHHVPVRDGLQPLFVAAPLHAGGRPAAFGLKDRVMADNTTSTALLDLRGVRKTFLTPDRRERTVLEGVDFKLEEGEIVALLGKSGSGKSTLLRIMAGLIKANGGEVKYRGHLMTGPAKGISMVFQSFALFPWLTVEENVELGLEAAGIPKAEREDRANEAIDLIGLGGYESAYPKELSGGMRQRVGFARALVMRPDVLLLDEPFSALDVLTSETLREDLLELWDERKIPTKGILLVSHNIEEAVSMADRVLVFSSDPGRVRAEIRVNLPRPRDTESAAFRQIVDEVYTLMTANVRGGGVGATEQLTLGYRLPDTTPGKMAGLLETVAEAPFNGRADLPQLAEETELEDDQLFHLFEGLRVLGLARIAAGDIFVTHSGQAFVEADDAHRKELFAEALVKNIPLAAHIRRVLDERKDHRAPEDRFLQELQDYLTDDEAERVLETTITWGRYAEIFDYDYNAGVLMLPEEVVEELEAGEETRDDPGARE,not soluble
13,MGSDKIHHHHHHVRVDLRHISDEKKLSYSDVLWQYVKQDFLWRINNAGLGNVLWLQKPYFATGEKLAFYYVYGSPGGRAEDNGTPFDVLRNIIIGNAGLNSHSDVVWTNAELSKQAAKVSANEPDASDMQPLIHTWNLSAMCDGGEVPFAVRLERLNEADAGVPMTKNIVFMNSFYGDADVCIFSPESRLGEQLFEIMDKLELVSDMKPYGDAYEILKRYSVSGRQIIDIFKVRAKNKPKTVSMHRLEQVYGYRSYAYMRRRWERYCKRLTRQQMAYANAGWEETLDLILDFLTPVWSAFCNDEIFYDDWMPELGRFLG,not soluble
14,MGSDKIHHHHHHVSLLGEERKSQIMQWLEEEGKVMTKDLIDRLDVSGETVRRYLEELERERQLKRVYGGAIYQGGKQESPISRRTDQLSRRLARYAKGWLADYSCIFLGKGEPVEHLLPYLSGSATIVTNSLSIASHLEQCRETGPFHGEIRLLGGTVDSYGQTVGVEVLQALDAYAFDASFLTFDGAEIERGFVSDDIESSLIQKAIIGRTKDVYAFLACDEFEGNRKYKVAEFRRAKIVLSPSTYPPSWEMKLFNERVNWTVVS,not soluble
15,MGSDKIHHHHHHVSLSFDFSPDFNPLAARMRPASVEEYIGQSHLLGEGKPLRQALLAGKVHSMLLWGPPGTGKTTLAELVARYANAHVERISAVTSGVKEIRAAIEQAKNVAQSRGQRTLLFVDEVHRFNKSQQDAFLPFIEDGTVIFIGATTENPSFEVNNALLSRCRVYLIKRLEDDAIGQILAQANSDEARGLGKRGLLLKAELKSAIARLCDGDARKALNLLELMSDLLPDGGEYNLELLSEVAGHQAAGYDKNGDQYYDLISAVHKSIRGSAPDAALYWFCRILEGGGDPLYVARRLLAIASEDIGNADPNAMTVALNAWDCFHRVGPAEGERAIAQAVIYLASAPKSNAVYTAFKAARVLARETGNAPVPNHLRNAPTKLMSELGVGEGYRYAHDEDGAFAAGENYFPEVLQHSRIYQPTARGFEKRIRDKLAHLDALNQQSGRKRYE,not soluble
16,MGSDKIHHHHHHVSTQFQGVIPPVITPRHADGSIDTSSLKNVTRHLIDGGVSGLFVLGSSGEVPYMTNAERELVVSTIADANASVGARAVPLIVGANEQTTNRVIEEAKKVIGLGADAIVVTSMYYAIGNAAETETHFRSIHAAVDKPIFAYDVPVRTHFKLPTDLLVRLGRDGVIAGVKDSSGDDVSFRQLLLEAKDIPDFDIFTGHEVVVDGALLGGAQGVVPGLGNVDPAGYRRLFDAAQAGDWATAAREQDRLADLFEIVYAPNGRVSGGAAGLGAFKTALQLMGVIESNTMSQPMLSLNDDEAAAIRTILERNGLV,not soluble
17,MGSDKIHHHHHHVSVSDAGNFDANDVAVTFGIDKVREAFEQRRSTLPPFAPYDEEPESERPKLKATPFSWRDPATIPPRKWLYGRHLIRKFLSLDIAPGGLGKSSVKIVEALAMTTGRNLLGKDCHEGPLNVWLYNLEDPAEETERRIHAAAQWFEIGPDDVGERLFVDSGREQPICIAEETDGGARIVRPVVEAVIEQLKDRRIDVLSIDPFVSSHAISENDNRAIDMVAKEWSRIADICDCAINLVHHVRKTNGAEVTAESSRGAVSLIGAARSVVVYNRMTKEEGERAGIEPRQLGFYFRTQNDKANLAPPEAADWFRMNNVDLPNGDSVGVACPWQWPDPFDGVSTWHLKEVQKRVSQGRYRADVRSAQWVGHVIANVLDIDLEKKAGRVKDILKQWLKNDMLREVEGTDEKRNVRKFVEVGTWHTD,not soluble
